US20260210939A1, “MODIFIED OLFACTORY RECEPTORS” (GIVAUDAN SA, priority 2022, published 2026)
Like-named read-outs stand apart in the source and are kept apart here.

What was measured:
OR5B12 = target: T1, OR5B12 (Homo sapiens, UniProt Q96R08, C141R); test: CRE-luciferase assay, HEK293T cells expressing OR5B12 (wild-type / modified C-terminus); type: cell-based; conditions: OR5B12 variant
T1 construct: Improved functional expression of modified OR-genes containing the truncated, optimized C-terminus; expressed in transfected cells; host or cells: HEK293T stably expressing human RTP1S(V227I) and RTP2(L220R)
T1 sequence (Q96R08 with tags, fused parts or gaps C141R): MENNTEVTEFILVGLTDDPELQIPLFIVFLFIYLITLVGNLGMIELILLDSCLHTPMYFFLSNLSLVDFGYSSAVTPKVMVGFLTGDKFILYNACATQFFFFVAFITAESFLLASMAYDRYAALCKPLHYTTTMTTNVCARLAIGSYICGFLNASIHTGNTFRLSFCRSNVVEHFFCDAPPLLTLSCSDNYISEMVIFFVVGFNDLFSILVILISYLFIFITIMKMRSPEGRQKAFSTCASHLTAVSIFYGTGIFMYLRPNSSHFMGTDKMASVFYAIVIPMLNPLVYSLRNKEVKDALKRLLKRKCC

OR2T4 = target: T2, OR2T4 (Homo sapiens, UniProt Q8NH00, D328E/G331D/M330K); conditions: OR2T4 variant
T2 sequence (Q8NH00 with tags, fused parts or gaps D328E/M330K/G331D): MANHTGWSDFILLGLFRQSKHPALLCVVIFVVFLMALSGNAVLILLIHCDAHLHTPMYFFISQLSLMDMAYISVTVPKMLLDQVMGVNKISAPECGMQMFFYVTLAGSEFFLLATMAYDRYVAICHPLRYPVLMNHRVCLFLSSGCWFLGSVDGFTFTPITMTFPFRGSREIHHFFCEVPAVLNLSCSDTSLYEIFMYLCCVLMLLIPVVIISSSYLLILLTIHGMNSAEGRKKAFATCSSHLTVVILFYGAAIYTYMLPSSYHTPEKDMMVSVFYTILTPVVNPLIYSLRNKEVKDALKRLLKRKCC

OR7C1 = target: T3, OR7C1 (Homo sapiens, UniProt O76099, D296E/G302K/M297V/R299D/T295K/V126I); test: CRE-luciferase assay, HEK293T cells expressing OR7C1 (wild-type / modified C-terminus); type: cell-based; conditions: for % of the activation by the optimized sequence RNKEVKDALKRLLKRKCC: OR7C1 variant, 1 μM Ambermax
T3 construct: Improved functional expression of modified OR-genes containing the truncated, optimized C-terminus; expressed in transfected cells; host or cells: HEK293T stably expressing human RTP1S(V227I) and RTP2(L220R)
T3 sequence (O76099 with tags, fused parts or gaps V126I/T295K/D296E/M297V/R299D/G302K): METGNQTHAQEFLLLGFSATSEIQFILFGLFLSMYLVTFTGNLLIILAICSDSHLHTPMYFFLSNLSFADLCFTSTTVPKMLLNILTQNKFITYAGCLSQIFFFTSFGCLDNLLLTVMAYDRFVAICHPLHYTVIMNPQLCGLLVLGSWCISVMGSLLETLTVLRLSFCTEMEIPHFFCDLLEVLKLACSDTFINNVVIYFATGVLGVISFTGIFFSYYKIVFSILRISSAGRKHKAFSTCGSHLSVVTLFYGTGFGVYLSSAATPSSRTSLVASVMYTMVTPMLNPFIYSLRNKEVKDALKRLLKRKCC
Text: To test for possible variants of the sequence […]CC (SEQ ID NO: 86) leading to similar improved functional expression, different point mutations were introduced into the first 16 amino acids of this sequence (corresponding to […], SEQ ID NO: 10) and the variants were fused after the TM7 with OR7C1. […] The test concentrations were selected to fall into the range of partial activity of the wild-type sequence.

OR5A2 = target: T4, OR5A2 (Homo sapiens, UniProt Q8NGI9); test: CRE-luciferase assay, HEK293T cells expressing OR5A2 (wild-type / modified C-terminus); type: cell-based; conditions: for fold-induction of luciferase: OR5A2 variant
T4 construct: Improved functional expression of modified OR-genes containing the truncated, optimized C-terminus; expressed in transfected cells; host or cells: HEK293T with stably integrated human RTP1S(V227I) and RTP2(L220R)
T4 sequence (Q8NGI9 with tags, fused parts or gaps): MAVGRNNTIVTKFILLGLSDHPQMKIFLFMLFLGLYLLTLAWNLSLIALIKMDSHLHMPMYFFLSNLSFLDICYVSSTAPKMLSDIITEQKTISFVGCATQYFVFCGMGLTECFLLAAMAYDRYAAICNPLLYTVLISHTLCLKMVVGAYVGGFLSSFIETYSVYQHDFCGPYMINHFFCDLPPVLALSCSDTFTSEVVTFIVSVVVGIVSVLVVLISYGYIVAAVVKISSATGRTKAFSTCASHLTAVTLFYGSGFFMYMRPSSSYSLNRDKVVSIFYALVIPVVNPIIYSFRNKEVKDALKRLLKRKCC

OR7D4 = target: T5, OR7D4 (Homo sapiens, UniProt Q8NG98, D296E/E302K/G299D); test: CRE-luciferase assay, HEK cells expressing OR7D4 (wild-type / modified C-terminus); type: cell-based; conditions: OR7D4 variant, Androstenone
T5 construct: Improved functional expression of modified OR-genes containing the truncated, optimized C-terminus; expressed in transfected cells
T5 sequence (Q8NG98 with tags, fused parts or gaps D296E/G299D/E302K): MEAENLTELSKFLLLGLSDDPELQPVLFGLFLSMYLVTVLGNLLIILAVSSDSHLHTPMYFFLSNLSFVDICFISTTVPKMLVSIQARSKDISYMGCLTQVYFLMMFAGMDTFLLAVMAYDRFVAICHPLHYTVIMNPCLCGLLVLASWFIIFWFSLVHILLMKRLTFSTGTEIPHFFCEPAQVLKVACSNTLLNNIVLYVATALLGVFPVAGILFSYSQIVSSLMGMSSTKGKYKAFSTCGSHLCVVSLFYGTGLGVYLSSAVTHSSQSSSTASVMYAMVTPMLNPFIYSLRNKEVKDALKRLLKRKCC
Text: Random permutations of the general C-terminal sequence RN[KR][EDQ][VMIL][KR]KA[LIV][KRH][KR][LI][LIF][KRG][KR][KR]CC (SEQ ID NO: 822) linked to OR7D4 were generated based on degenerate oligonucleotides for the C-terminal domain. For this experiment, the MfeI/XhoI fragment from pcDNA3.1(+)-mmLucy-FLAG-rho-OR7D4 containing the CMV promoter and the OR coding sequence was used to replace the EcoRI/SalI fragment of pRDVCCB-CMV-dCas9-VPH-2A-Blast (Cellecta, Inc., Mountain View, USA). Complementary degenerate oligonucleotides were then used to replace the coding region of the C-terminal domain of […] (between Bsu36I and NotI). Random clones were selected, sequenced and tested for a correct open reading frame. A total of 55 clones were obtained with the correct open reading frame of […] and a permutation of the general sequence RN[KR][EDQ][VMIL][KR]KA[LIV][KRH][KR][LI][LIF][KRG][KR][KR]CC (SEQ ID NO: 822) as the C-terminal domain. All the different clones were compared to the wild-type sequence by the functional assay in HEK cells with the ligand Androstenone tested in a dose-response test.

OR52A5 = target: T6, OR52A5 (Homo sapiens, UniProt Q9H2C5); type: cell-based
T6 construct: Improved functional expression of modified OR-genes containing the truncated, optimized C-terminus; expressed in transfected cells; host or cells: HEK293T stably expressing human RTP1S(V227I) and RTP2(L220R)
T6 sequence (Q9H2C5 with tags, fused parts or gaps): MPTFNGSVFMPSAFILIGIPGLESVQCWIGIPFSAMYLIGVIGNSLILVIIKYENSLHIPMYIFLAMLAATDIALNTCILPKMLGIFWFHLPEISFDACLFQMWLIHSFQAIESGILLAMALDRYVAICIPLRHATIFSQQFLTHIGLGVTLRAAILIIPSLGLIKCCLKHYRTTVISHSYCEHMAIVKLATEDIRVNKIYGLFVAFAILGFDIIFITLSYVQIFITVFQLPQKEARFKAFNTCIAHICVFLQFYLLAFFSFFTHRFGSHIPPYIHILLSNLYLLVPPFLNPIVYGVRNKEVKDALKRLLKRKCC
Experimental: Further variants of the improved C-terminal domain sequence […] (SEQ ID NO: 86) and falling within the general sequence RN[KR][EDQ][VMIL][KR]xA[LIV][KRH][KR][LI][LIF][KRG][KR][KR] (SEQ ID NO: 1) with further amino acids at the C-terminal end (CC) were tested on the class I receptor OR52A5 activated by 4-ethyloctanoic acid. […] This activation is further improved by either replacing amino acid position 4-6 with the sequence QIR or by adding the terminal sequence RRR.

[1] = 4 μM 2-methyl-3-tetrahydrofuranethiol
[2] = 8 μM 2-methyl-3-tetrahydrofuranethiol

SEQ ID NO: 117 (RNKEVKKAIKRLFKRKCC; source 1..18: note = C-terminal domain sequence)
% of the activation by the optimized sequence RNKEVKDALKRLLKRKCC (OR5B12; 31 μM Hedione HC): 435.4% | % of the activation by the optimized sequence RNKEVKDALKRLLKRKCC (OR5B12; 62.5 μM Hedione HC): 282.5% | % of the activation by the optimized sequence RNKEVKDALKRLLKRKCC (OR2T4; [1]): 96.2% | % of the activation by the optimized sequence RNKEVKDALKRLLKRKCC (OR2T4; [2]): 88.2% | % of the activation by the optimized sequence RNKEVKDALKRLLKRKCC (OR7C1): 310.7% | fold-induction of luciferase (OR5A2; muscone 0.01 μM): 0.96 | fold-induction of luciferase (OR5A2; muscone 0.03 μM): 1.39 | fold-induction of luciferase (OR5A2; muscone 0.10 μM): 3.49 | fold-induction of luciferase (OR5A2; muscone 0.32 μM): 9.33 | fold-induction of luciferase (OR5A2; muscone 1.00 μM): 19.44 | fold-induction of luciferase (OR5A2; muscone 3.16 μM): 27.31 | fold-induction of luciferase (OR5A2; muscone 10.00 μM): 30.34

SEQ ID NO: 86: optimized C-terminal sequence fused after TM7 of the OR of the assay (RNKEVKDALKRLLKRKCC; source 1..18: note = C-terminal domain sequence)
% of the activation by the optimized sequence RNKEVKDALKRLLKRKCC (OR5B12; 31 μM Hedione HC): 100% | % of the activation by the optimized sequence RNKEVKDALKRLLKRKCC (OR5B12; 62.5 μM Hedione HC): 100% | % of the activation by the optimized sequence RNKEVKDALKRLLKRKCC (OR2T4; [1]): 100% | % of the activation by the optimized sequence RNKEVKDALKRLLKRKCC (OR2T4; [2]): 100% | % of the activation by the optimized sequence RNKEVKDALKRLLKRKCC (OR2T4; 10 μM Cyclopentanethiol, 30 μM copper): 100% | % of the activation by the optimized sequence RNKEVKDALKRLLKRKCC (OR2T4; 31 μM Cyclopentanethiol, 30 μM copper): 100% | luciferase induction (OR7C1; 1 μM of Ambermax): around 10 fold | % of the activation by the optimized sequence RNKEVKDALKRLLKRKCC (OR7C1): 100% | EC2 (concentration for 2-fold luciferase induction) (OR7D4): 0.007 µM | EC2 Fold-improvement vs. wild-type (OR7D4): 249.44 | fold induction of luciferase by 4-ethyloctanoic acid (OR52A5; 1 µM): 2.21 | fold induction of luciferase by 4-ethyloctanoic acid (OR52A5; 10 µM): 3.53 | fold induction of luciferase by 4-ethyloctanoic acid (OR52A5; 31 µM): 7.64 | fold-induction of luciferase (OR5A2; muscone 0.01 μM): 1.07 | fold-induction of luciferase (OR5A2; muscone 0.03 μM): 1.48 | fold-induction of luciferase (OR5A2; muscone 0.10 μM): 3.57 | fold-induction of luciferase (OR5A2; muscone 0.32 μM): 10.02 | fold-induction of luciferase (OR5A2; muscone 1.00 μM): 21.98 | fold-induction of luciferase (OR5A2; muscone 3.16 μM): 31.84 | fold-induction of luciferase (OR5A2; muscone 10.00 μM): 33.98

SEQ ID NO: 156 (RNKEVKDALKRLLKRKCCRRR; source 1..21: note = C-terminal domain sequence)
% of the activation by the optimized sequence RNKEVKDALKRLLKRKCC (OR5B12; 31 μM Hedione HC): 250.7% | % of the activation by the optimized sequence RNKEVKDALKRLLKRKCC (OR5B12; 62.5 μM Hedione HC): 233.4% | fold induction of luciferase by 4-ethyloctanoic acid (OR52A5; 1 µM): 9.39 | fold induction of luciferase by 4-ethyloctanoic acid (OR52A5; 10 µM): 14.90 | fold induction of luciferase by 4-ethyloctanoic acid (OR52A5; 31 µM): 22.00

CC1COCc2cc3c(cc21)C(C)(C)C(C)C3(C)C (stereo not shown) [Galaxolide, reference compound]
Comments on efficacy (OR5A2): No induction | Detection threshold; concentration for 2-fold induction (OR5A2; changed C-term. SEQ ID NO: 86): 0.0016 µM | Fold-improvement potency (OR5A2; changed C-term. vs wild-type): >300 | Fold-improvement threshold (OR5A2; changed C-term. vs wild-type): >20000 | concentration at which activation occurs (OR5A2; modified OR5A2, SEQ ID NO: 86): < 0.01 µM | Detection threshold; concentration for 2-fold induction (OR5A2; wild-type): (>>31) μM

CCOc1cc(C=O)ccc1O [ethyl vanillin, reference compound]
response of the modified receptor (OR5A2; modified OR5A2, SEQ ID NO: 86): no response

SEQ ID NO: 740 (RNKQIRDALKRLLKRKCC; source 1..18: note = C-terminal domain sequence)
fold induction of luciferase by 4-ethyloctanoic acid (OR52A5; 1 µM): 10.09 | fold induction of luciferase by 4-ethyloctanoic acid (OR52A5; 10 µM): 12.30 | fold induction of luciferase by 4-ethyloctanoic acid (OR52A5; 31 µM): 19.31

CCCCC(CC)CCC(=O)O (stereo not shown) [4-ethyloctanoic acid, reference compound]
Comments on efficacy (OR52A5): 2.5-fold lower | Fold-improvement threshold (OR52A5; changed C-term. vs wild-type): >10
